Measurements from PMC3946673.

Biological target: human lactoferrin from milk (human)
Test: SPR; lactoferrin immobilised by amine coupling on Sensor Chip CM3 (around 1000 RU); EndoE variants injected at typically 31-500 nM, 15 µl/min, 25°C, 10 mM Hepes pH 7.5, 150 mM NaCl, 0.005% surfactant P20; BIAcore 2000; 1:1 Langmuir fit, KD from mean values of the rate constants

| Substance | Kd [nM] |
| --- | --- |
| EndoE(E662Q) (from UniProt Q6U890 1-837) (enzyme) | 3.7 |
| EndoE(E186Q) (from UniProt Q6U890 1-837) (enzyme) | 44 |
